In one data set the target is T1, human CNGB3, full-length (human, UniProt Q9NQW8-1 1-809, N339 glycosylation site).
T1 construct: human cone photoreceptor cyclic nucleotide-gated channel subunit CNGB3, NCBI NP_061971.3, full length; modelled residues L206 to R643; One copy of this subunit stands with three CNGA3 in the channel tetramer; Cloned in the vector pEZT-BM (Addgene #74099); source: HEK 293S GnTi- cells (BacMam), co-infected with CNGA3 virus, purified (amylose resin, StrepTrap, Superose 6) in GDN
T1 sequence (looked up): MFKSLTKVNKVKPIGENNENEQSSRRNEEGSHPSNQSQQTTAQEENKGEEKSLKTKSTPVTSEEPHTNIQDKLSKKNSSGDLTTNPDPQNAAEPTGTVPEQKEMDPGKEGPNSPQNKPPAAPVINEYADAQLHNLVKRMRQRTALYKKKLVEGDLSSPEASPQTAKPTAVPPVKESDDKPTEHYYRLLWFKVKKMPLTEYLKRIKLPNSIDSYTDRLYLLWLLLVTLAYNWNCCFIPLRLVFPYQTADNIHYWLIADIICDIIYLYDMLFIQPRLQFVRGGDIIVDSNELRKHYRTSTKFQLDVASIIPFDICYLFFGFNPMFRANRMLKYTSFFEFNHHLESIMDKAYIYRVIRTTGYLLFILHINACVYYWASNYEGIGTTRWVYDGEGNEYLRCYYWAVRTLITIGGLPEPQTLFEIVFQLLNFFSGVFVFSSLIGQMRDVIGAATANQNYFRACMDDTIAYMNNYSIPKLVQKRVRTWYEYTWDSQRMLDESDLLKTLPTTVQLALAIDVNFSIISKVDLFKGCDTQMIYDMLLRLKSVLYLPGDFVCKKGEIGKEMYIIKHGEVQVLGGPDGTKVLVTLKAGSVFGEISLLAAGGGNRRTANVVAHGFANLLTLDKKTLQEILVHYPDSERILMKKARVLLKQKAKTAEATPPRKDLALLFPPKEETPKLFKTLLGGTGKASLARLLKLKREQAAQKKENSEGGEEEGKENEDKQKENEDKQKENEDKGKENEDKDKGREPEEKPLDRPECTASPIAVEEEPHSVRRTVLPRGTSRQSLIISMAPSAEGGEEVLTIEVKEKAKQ
Nature of the data set: cryo-EM structure; full-length CNGA3/CNGB3 co-expressed and co-purified, in 0.02% GDN, 50 mM HEPES-Na pH 8.58, 150 mM NaCl, 0.1 mM TCEP, 2 mM EGTA, 2 mM cGMP; three states (closed, intermediate 1, intermediate 2), C1 symmetry. Conditions: both partners purified.

Data set [1] deals with the molecule itself. Described as above.
Data set [2] deals with T2, truncated human CNGB3 (amino acids 79-809) (human, UniProt Q9NQW8-1 79-809).
T2 construct: human CNGB3, NCBI NP_061971.3, amino acids 79-809 (amino acids 1-78 removed); Expressed as trunCNGA3-P2A-trunCNGB3 from one pEZT-BM vector; a residue of the P2A linker may precede the FLAG tag (surmised); also called truncated CNGB3; trunCNGB3
T2 sequence (looked up): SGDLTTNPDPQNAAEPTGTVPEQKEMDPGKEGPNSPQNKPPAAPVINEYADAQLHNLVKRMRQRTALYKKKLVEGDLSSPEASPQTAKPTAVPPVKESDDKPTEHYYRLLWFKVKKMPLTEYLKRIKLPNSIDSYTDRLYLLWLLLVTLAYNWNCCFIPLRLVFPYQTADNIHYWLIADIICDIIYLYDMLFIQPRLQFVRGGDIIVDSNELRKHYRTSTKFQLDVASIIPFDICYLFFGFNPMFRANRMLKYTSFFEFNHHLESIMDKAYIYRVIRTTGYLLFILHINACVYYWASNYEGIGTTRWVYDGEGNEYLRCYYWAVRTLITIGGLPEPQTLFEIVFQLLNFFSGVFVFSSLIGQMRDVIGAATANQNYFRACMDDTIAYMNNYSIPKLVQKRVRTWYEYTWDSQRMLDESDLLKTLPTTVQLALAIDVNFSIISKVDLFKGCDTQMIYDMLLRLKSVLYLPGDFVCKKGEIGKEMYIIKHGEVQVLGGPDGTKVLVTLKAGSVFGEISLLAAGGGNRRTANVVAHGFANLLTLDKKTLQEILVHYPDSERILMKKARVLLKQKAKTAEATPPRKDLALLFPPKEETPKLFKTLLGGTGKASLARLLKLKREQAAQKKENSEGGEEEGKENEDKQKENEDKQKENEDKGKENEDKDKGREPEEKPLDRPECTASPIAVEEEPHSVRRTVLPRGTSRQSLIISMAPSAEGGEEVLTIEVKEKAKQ
Put plainly: cryo-EM structure; truncated CNGA3/CNGB3 co-expressed (P2A) and co-purified, in POPG/POPC (1:1) nanodiscs with MSP2N2, 50 mM HEPES-Na pH 8.58, 150 mM NaCl, 0.1 mM TCEP, 2 mM EGTA, 4 mM cGMP; five states (closed, intermediate 1, intermediate 2, pre-open, open), C1 symmetry. Conditions: both partners purified.

Data set [3] deals with the molecule itself. The data set is described as above.

B1: human CNGA3, full-length (natural protein, UniProt Q16281-1 1-694, looked up)
chain: MAKINTQYSHPSRTHLKVKTSDRDLNRAENGLSRAHSSSEETSSVLQPGIAMETRGLADSGQGSFTGQGIARLSRLIFLLRRWAARHVHHQDQGPDSFPDRFRGAELKEVSSQESNAQANVGSQEPADRGRSAWPLAKCNTNTSNNTEEEKKTKKKDAIVVDPSSNLYYRWLTAIALPVFYNWYLLICRACFDELQSEYLMLWLVLDYSADVLYVLDVLVRARTGFLEQGLMVSDTNRLWQHYKTTTQFKLDVLSLVPTDLAYLKVGTNYPEVRFNRLLKFSRLFEFFDRTETRTNYPNMFRIGNLVLYILIIIHWNACIYFAISKFIGFGTDSWVYPNISIPEHGRLSRKYIYSLYWSTLTLTTIGETPPPVKDEEYLFVVVDFLVGVLIFATIVGNVGSMISNMNASRAEFQAKIDSIKQYMQFRKVTKDLETRVIRWFDYLWANKKTVDEKEVLKSLPDKLKAEIAINVHLDTLKKVRIFQDCEAGLLVELVLKLRPTVFSPGDYICKKGDIGKEMYIINEGKLAVVADDGVTQFVVLSDGSYFGEISILNIKGSKSGNRRTANIRSIGYSDLFCLSKDDLMEALTEYPEAKKALEEKGRQILMKDNLIDEELARAGADPKDLEEKVEQLGSSLDTLQTRFARLLAEYNATQMKMKQRLSQLESQVKGGGDKPLADGEVPGDATKTEDKQQ
notes: human cone photoreceptor cyclic nucleotide-gated channel subunit CNGA3, NCBI NP_001289.1, full length; modelled residues about A158-I159 to D609-L614; Three copies of this subunit stand with one CNGB3 in the channel tetramer; MBP was cut off with P3C protease; residues of the P3C site may remain at the N-terminus; Cloned in the vector pEZT-BM (Addgene #74099); also called CNGA3L; A3L; source: HEK …
As to B1, the “stoichiometry N” value with human CNGB3, full-length came to 3 A3 per B3. For the same molecule, the binding result in data set [1] is given as “binds”.

B2: truncated human CNGA3 (amino acids 152-694) (domain or fragment, UniProt Q16281-1 152-694, looked up)
chain: KTKKKDAIVVDPSSNLYYRWLTAIALPVFYNWYLLICRACFDELQSEYLMLWLVLDYSADVLYVLDVLVRARTGFLEQGLMVSDTNRLWQHYKTTTQFKLDVLSLVPTDLAYLKVGTNYPEVRFNRLLKFSRLFEFFDRTETRTNYPNMFRIGNLVLYILIIIHWNACIYFAISKFIGFGTDSWVYPNISIPEHGRLSRKYIYSLYWSTLTLTTIGETPPPVKDEEYLFVVVDFLVGVLIFATIVGNVGSMISNMNASRAEFQAKIDSIKQYMQFRKVTKDLETRVIRWFDYLWANKKTVDEKEVLKSLPDKLKAEIAINVHLDTLKKVRIFQDCEAGLLVELVLKLRPTVFSPGDYICKKGDIGKEMYIINEGKLAVVADDGVTQFVVLSDGSYFGEISILNIKGSKSGNRRTANIRSIGYSDLFCLSKDDLMEALTEYPEAKKALEEKGRQILMKDNLIDEELARAGADPKDLEEKVEQLGSSLDTLQTRFARLLAEYNATQMKMKQRLSQLESQVKGGGDKPLADGEVPGDATKTEDKQQ
notes: human CNGA3, NCBI NP_001289.1, amino acids 152-694 (amino acids 1-151 removed); Expressed as trunCNGA3-P2A-trunCNGB3 from one pEZT-BM vector; also called truncated CNGA3; trunCNGA3
For the molecule B2, the binding result in data set [2] and in data set [3] was “binds” throughout.

By stoichiometry N is commonly meant a count of units in the complex or per binding partner.
